Target: T1, stabilized SARS-CoV-2 Omicron S ECD HexaPro (SARS-CoV-2 Omicron BA.1, stabilised)
T1 construct: also called prefusion Omicron BA.1 S trimer; BA.1 S
Experiment: cryo-EM structure
Details: both partners purified

B1: 58G6 Fab (Fab, V domains shown)
VH: QMQLVQSGPEVKKPGTSVKVSCKASGFTFSSSAVQWVRQARGQHLEWIGWIVVGSGNTNYAQKFQERVTLTRDMSTRTAYMELSSLRSEDTAVYYCAAPNCNSTTCHDGFDIWGQGTVVTVSS
VL: EIVLTQSPGTLSLSPGERATLSCRASQSVRSSYLGWYQQKPGQAPRLLIYGASSRATGIPDRFSGSGSGTDFTLTISRLESEDFAVYYCQQYDNSPWTFGQGTKVEIK
  stoichiometry N: 1 Fabs per S trimer

From paper PMC11128199 (JCI Insight, 2024)
